Data on three molecules can be found in paper PMC3039135.

Holding throughout (test): SPR
In assay [1] the target is gWO2 rFab (mouse | human).
Assay [2] deals with 20.1_VH/WO2_VL rFab (mouse | human).
In assay [3] the target is WO2_VH/gWO2_VL rFab (mouse | human).
Assay [4] deals with WO2 (Y58>A) mutant rFab (mouse | human).
Assay [5] concerns the target gWO2_VH/WO2_VL rFab (mouse | human).
Assay [6] concerns the target WO2_VH/20.1_VL rFab (mouse | human).
Assay [7] addresses biotinylated Aβ1–42 high molecular weight (HMW) soluble oligomers (human).
Assay [8] has as its target biotinylated Aβ1–16 peptide (human).

The term Kd denotes the constant that tells how readily two partners part at equilibrium. Broadly, the koff is the first-order rate constant of dissociation. The kon is a measure of how fast the partners come together.

For “Aβ1–16-Im7 fusion protein (domain or fragment)”, the Kd in assay [1] was determined as 21300 nM; in assay [2] it was 2.8 nM; in assay [3], 349 nM; in assay [4] it was 4900 nM; in assay [5], 79 nM; in assay [6], 41 nM. Besides, the koff was determined as 0.0015 s⁻¹ in assay [2], 0.145 s⁻¹ in assay [3], 0.026 s⁻¹ in assay [5] and 0.0614 s⁻¹ in assay [6]. Also, the kon in assay [2] worked out at 540000 M⁻¹ s⁻¹; in assay [3], 390000 M⁻¹ s⁻¹; in assay [5], 330000 M⁻¹ s⁻¹; in assay [6], 1.5e+06 M⁻¹ s⁻¹.

B1: WO2/10D5_HCDR3 rFab (Fab, V domains shown)
VH: VTLKESGPGLLKPSQTLSLTCSFSGFSIRTSKVGVSWIRQPSGKGLEWLAHIYWDDDKRYNPSLESRLTISKDTSRDMVFMKITSVDTADTATYYCVRRPITPVLVDAMDYWGQGTTLTVSS
VL: DVLMTQTPLSLPVNLGEQASISCRSSQSIVHSNGHTYLEWYLQRPGQSPKLLIYQVSTRFSGVPDRFSGSGSGTDFTLRISRVEAEDLGVYYCFQASLVPLTFGAGTKLELK
Turning to B1, the Kd was 89.2 nM in assay [7] and 154 nM in assay [8]. The koff in assay [7] is 0.00546 s⁻¹; in assay [8], 0.00974 s⁻¹.

B2: WO2/12A11_HCDR3 rFab (Fab, V domains shown)
VH: VTLKESGPGLLKPSQTLSLTCSFSGFSIRTSKVGVSWIRQPSGKGLEWLAHIYWDDDKRYNPSLESRLTISKDTSRDMVFMKITSVDTADTATYYCARRTTTADYFAYWGQGTTLTVSS
VL: B1 VL
Regarding B2, in assay [7], the Kd was 135 nM, the koff is 0.0261 s⁻¹ and the kon was found to be 133000 M⁻¹ s⁻¹. Further, in assay [8], the Kd stood at 262 nM, the dissociation rate constant (koff) is 0.0449 s⁻¹ and the kon stood at 171000 M⁻¹ s⁻¹.
